B1: HCoV-HKU1 S protein (other)
chain: AVIGDFNCTNFAINDLNTTVPRISEYVVDVSYGLGTYYILDRVYLNTTILFTGYFPKSGANFRDLSLKGTTYLSTLWYQKPFLSDFNNGIFSRVKNTKLYVNKTLYSEFSTIVIGSVFINNSYTIVVQPHNGVLEITACQYTMCEYPHTICKSKGSSRNESWHFDKSEPLCLFKKNFTYNVSTDWLYFHFYQERGTFYAYYADSGMPTTFLFSLYLGTLLSHYYVLPLTCNAISSNTDNETLQYWVTPLSKRQYLLKFDNRGVITNAVDCSSSFFSEIQCKTKSLLPNTGVYDLSGFTVKPVATVHRRIPDLPDCDIDKWLNNFNVPSPLNWERKIFSNCNFNLSTLLRLVHTDSFSCNNFDESKIYGSCFKSIVLDKFAIPNSRRSDLQLGSSGFLQSSNYKIDTTSSSCQLYYSLPAINVTINNYNPSSWNRRYGFNNFNLSSHSVVYSRYCFSVNNTFCPCAKPSFASSCKSHKPPSASCPIGTNYRSCESTTVLDHTDWCRCSCLPDPITAYDPRSCSQKKSLVGVGEHCAGFGVDEEKCGVLDGSYNVSCLCSTDAFLGWSYDTCVSNNRCNIFSNFILNGINSGTTCSNDLLQPNTEVFTDVCVDYDLYGITGQGIFKEVSAVYYNSWQNLLYDSNGNIIGFKDFVTNKTYNIFPCYAGRVSAAFHQNASSLALLYRNLKCSYVLNNISLTTQPYFDSYLGCVFNADNLTDYSVSSCALRMGSGFCVDYNSPSSSSSRRKRRSISASYRFVTFEPFNVSFVNDSIESVGGLYEIKIPTNFTIVGQEEFIQTNSPKVTIDCSLFVCSNYAACHDLLSEYGTFCDNINSILDEVNGLLDTTQLHVADTLMQGVTLSSNLNTNLHFDVDNINFKSLVGCLGPHCGSSSRSFFEDLLFDKVKLSDVGFVEAYNNCTGGSEIRDLLCVQSFNGIKVLPPILSESQISGYTTAATVAAMFPPWSAAAGIPFSLNVQYRINGLGVTMDVLNKNQKLIATAFNNALLSIQNGFSATNSALAKIQSVVNSNAQALNSLLQQLFNKFGAISSSLQEILSRLDALEAQVQIDRLINGRLTALNAYVSQQLSDISLVKFGAALAMEKVNECVKSQSPRINFCGNGNHILSLVQNAPYGLLFMHFSYKPISFKTVLVSPGLCISGDVGIAPKQGYFIKHNDHWMFTGSSYYYPEPISDKNVVFMNTCSVNFTKAPLVYLNHSVPKLSDFESELSHWFKNQTSIAPNLTLNLHTINATFLDLYYEMNLIQESIKSLN
notes: also called S protein from HCoV-HKU1
B2: MERS-CoV S protein (other)
chain: YVDVGPDSVKSACIEVDIQQTFFDKTWPRPIDVSKADGIIYPQGRTYSNITITYQGLFPYQGDHGDMYVYSAGHATGTTPQKLFVANYSQDVKQFANGFVVRIGAAANSTGTVIISPSTSATIRKIYPAFMLGSSVGNFSDGKMGRFFNHTLVLLPDGCGTLLRAFYCILEPRSGNHCPAGNSYTSFATYHTPATDCSDGNYNRNASLNSFKEYFNLRNCTFMYTYNITEDEILEWFGITQTAQGVHLFSSRYVDLYGGNMFQFATLPVYDTIKYYSIIPHSIRSIQSDRKAWAAFYVYKLQPLTFLLDFSVDGYIRRAIDCGFNDLSQLHCSYESFDVESGVYSVSSFEAKPSGSVVEQAEGVECDFSPLLSGTPPQVYNFKRLVFTNCNYNLTKLLSLFSVNDFTCSQISPAAIASNCYSSLILDYFSYPLSMKSDLSVSSAGPISQFNYKQSFSNPTCLILATVPHNLTTITKPLKYSYINKCSRFLSDDRTEVPQLVNANQYSPCVSIVPSTVWEDGDYYRKQLSPLEGGGWLVASGSTVAMTEQLQMGFGITVQYGTDTNSVCPKLEFANDTKIASQLGNCVEYSLYGVSGRGVFQNCTAVGVRQQRFVYDAYQNLVGYYSDDGNYYCLRACVSVPVSVIYDKETKTHATLFGSVACEHISSTMSQYSRSTRSMLKRRDSTYGPLQTPVGCVLGLVNSSLFVEDCKLPLGQSLCALPDTPSTLTPRSVRSVPGEMRLASIAFNHPIQVDQLNSSYFKLSIPTNFSFGVTQEYIQTTIQKVTVDCKQYVCNGFQKCEQLLREYGQFCSKINQALHGANLRQDDSVRNLFASVKSSQSSPIIPGFGGDFNLTLLEPVSISTGSRSARSAIEDLLFDKVTIADPGYMQGYDDCMQQGPASARDLICAQYVAGYKVLPPLMDVNMEAAYTSSLLGSIAGVGWTAGLSSFAAIPFAQSIFYRLNGVGITQQVLSENQKLIANKFNQALGAMQTGFTTTNEAFHKVQDAVNNNAQALSKLASELSNTFGAISASIGDIIQRLDVLEQDAQIDRLINGRLTTLNAFVAQQLVRSESAALSAQLAKDKVNECVKAQSKRSGFCGQGTHIVSFVVNAPNGLYFMHVGYYPSNHIEVVSAYGLCDAANPTNCIAPVNGYFIKTNNTRIVDEWSYTGSSFYAPEPITSLNTKYVAPQVTYQNISTNLPPPLLGNSTGIDFQDELDEFFKNVSTSIPNFGSLTQINTTLLDLTYEMLSLQQVVKALNESYIDLKELGNYTY
notes: also called S protein from MERS-CoV
B3: HCoV-OC43 S protein (other)
chain: AVIGDLKCTSDNINDKDTGPPPISTDTVDVTNGLGTYYVLDRVYLNTTLFLNGYYPTSGSTYRNMALKGSVLLSRLWFKPPFLSDFINGIFAKVKNTKVIKDRVMYSEFPAITIGSTFVNTSYSVVVQPRTINSTQDGDNKLQGLLEVSVCQYNMCEYPQTICHPNLGNHRKELWHLDTGVVSCLYKRNFTYDVNADYLYFHFYQEGGTFYAYFTDTGVVTKFLFNVYLGMALSHYYVMPLTCNSKLTLEYWVTPLTSRQYLLAFNQDGIIFNAEDCMSDFMSEIKCKTQSIAPPTGVYELNGYTVQPIADVYRRKPNLPNCNIEAWLNDKSVPSPLNWERKTFSNCNFNMSSLMSFIQADSFTCNNIDAAKIYGMCFSSITIDKFAIPNGRKVDLQLGNLGYLQSFNYRIDTTATSCQLYYNLPAANVSVSRFNPSTWNKRFGFIEDSVFKPRPAGVLTNHDVVYAQHCFKAPKNFCPCKLNGSCVGSGPGKNNGIGTCPAGTNYLTCDNLCTPDPITFTGTYKCPQTKSLVGIGEHCSGLAVKSDYCGGNSCTCRPQAFLGWSADSCLQGDKCNIFANFILHDVNSGLTCSTDLQKANTDIILGVCVNYDLYGILGQGIFVEVNATYYNSWQNLLYDSNGNLYGFRDYIINRTFMIRSCYSGRVSAAFHANSSEPALLFRNIKCNYVFNNSLTRQLQPINYFDSYLGCVVNAYNSTAISVQTCDLTVGSGYCVDYSKNRRSRGAITTGYRFTNFEPFTVNSVNDSLEPVGGLYEIQIPSEFTIGNMVEFIQTSSPKVTIDCAAFVCGDYAACKSQLVEYGSFCDNINAILTEVNELLDTTQLQVANSLMNGVTLSTKLKDGVNFNVDDINFSPVLGCLGSECSKASSRSAIEDLLFDKVKLSDVGFVEAYNNCTGGAEIRDLICVQSYKGIKVLPPLLSENQISGYTLAATSASLFPPWTAAAGVPFYLNVQYRINGLGVTMDVLSQNQKLIANAFNNALYAIQEGFDATNSALVKIQAVVNANAEALNNLLQQLSNRFGAISASLQEILSRLDALEAEAQIDRLINGRLTALNAYVSQQLSDSTLVKFSAAQAMEKVNECVKSQSSRINFCGNGNHIISLVQNAPYGLYFIHFSYVPTKYVTARVSPGLCIAGDRGIAPKSGYFVNVNNTWMYTGSGYYYPEPITENNVVVMSTCAVNYTKAPYVMLNTSIPNLPDFKEELDQWFKNQTSVAPDLSLDYINVTFLDLQVEMNRLQEAIKVLNQSYINLKDIGTYEY
notes: also called S protein from HCoV-OC43

These binders were tested against T1, ACE2 (angiotensin-converting enzyme 2), labeled (human, UniProt Q9BYF1 18-740) (assay: labeled ACE2 on immobilized Mixed Panel, ECL).
T1 construct: also called labeled ACE2
T1 sequence (Q9BYF1 18-740 limits assumed): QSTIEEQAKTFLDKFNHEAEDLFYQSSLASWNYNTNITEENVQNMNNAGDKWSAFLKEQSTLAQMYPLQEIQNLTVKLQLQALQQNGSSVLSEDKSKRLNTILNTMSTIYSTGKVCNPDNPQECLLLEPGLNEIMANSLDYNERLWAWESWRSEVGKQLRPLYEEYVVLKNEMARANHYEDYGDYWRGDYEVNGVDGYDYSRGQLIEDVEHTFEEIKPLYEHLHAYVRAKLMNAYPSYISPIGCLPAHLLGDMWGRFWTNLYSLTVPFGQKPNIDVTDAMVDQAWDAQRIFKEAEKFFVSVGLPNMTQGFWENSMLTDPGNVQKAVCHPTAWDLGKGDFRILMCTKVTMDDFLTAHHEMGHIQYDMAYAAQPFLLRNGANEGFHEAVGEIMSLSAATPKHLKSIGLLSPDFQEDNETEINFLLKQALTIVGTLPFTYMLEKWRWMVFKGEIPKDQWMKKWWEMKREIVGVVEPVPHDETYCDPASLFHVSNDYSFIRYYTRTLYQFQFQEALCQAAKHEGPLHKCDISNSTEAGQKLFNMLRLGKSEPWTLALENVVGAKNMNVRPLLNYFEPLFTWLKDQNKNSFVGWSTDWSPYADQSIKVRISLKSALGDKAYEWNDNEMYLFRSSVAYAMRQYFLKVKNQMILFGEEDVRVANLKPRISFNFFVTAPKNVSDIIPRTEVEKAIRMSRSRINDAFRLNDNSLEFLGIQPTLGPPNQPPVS

Binder | binding result
B1 | no binding
B2 | no binding
B3 | no binding

Source: patent US20210349104A1 (MESO SCALE TECHNOLOGIES, published 2021)
